These results are taken from patent US11103555B2, “Compositions and methods for reducing tumor cell growth at a site of solid tumor excision” (The Pacific Heart, Lung, & Blood Institute, priority 2016, dated 2021).

This experiment concerns melanoma. Put plainly: Treatment of patients with melanoma. The experiment is classed as in vivo. The method, then: 100 patients are diagnosed with melanoma and subject to IL-12 recombinant protein injection at the tumor site. Patients receive either vehicle injections, 250 ng/kg/day of IL-12 or 500 ng/kg/day of IL-12 per treatment every three days for a week. […] By 5 years post-surgery, 40% of the patients who undergo IL-12 therapy have a relapse of […], and have 60% survival rate.
100 patients are diagnosed with melanoma and are administered genetically modified stem cells expressing IL-12 by intracavitary infusion. Tumor size is monitored by PET scan, and at the end of six months, the tumor size is reduced.

B1: IL-12: IL-12 recombinant protein injected at the tumor site (protein, listed as Homo sapiens)
chain 1: MCHQQLVISWFSLVFLASPLVAIWELKKDVYVVELDWYPDAPGEMVVLTCDTPEEDGITWTLDQSSEVLGSGKTLTIQVKEFGDAGQYTCHKGGEVLSHSLLLLHKKEDGIWSTDILKDQKEPKNKTFLRCEAKNYSGRFTCWWLTTISTDLTFSVKSSRGSSDPQGVTCGAATLSAERVRGDNKEYEYSVECQEDSACPAAEESLPIEVMVDAVHKLKYENYTSSFFIRDIIKPDPPKNLQLKPLKNSRQVEVSWEYPDTWSTPHSYFSLTFCVQVQGKSKREKKDRVFTDKTSATVICRKNASISVRAQDRYYSSSWSEWASVPCS
chain 2: MWPPGSASQPPPSPAAATGLHPAARPVSLQCRLSMCPARSLLLVATLVLLDHLSLARNLPVATPDPGMFPCLHHSQNLLRAVSNMLQKARQTLEFYPCTSEEIDHEDITKDKTSTVEACLPLELTKNESCLNSRETSFITNGSCLASRKTSFMMALCLSSIYEDLKMYQVEFKTMNAKLLMDPKRQIFLDQNMLAVIDELMQALNFNSETVPQKSSLEEPDFYKTKIKLCILLHAFRIRAVTIDRVMSYLNAS
Regarding B1, where the note is “500 ng/kg/day versus 250 ng/kg/day or vehicle”, the “tumor size by PET scan, higher dose” value is “greater reduction in tumor size than the lower dose or vehicle injected patients”. Moreover, the “tumor size by PET scan” value (IL-12 recombinant protein injection at the tumor site, 250 or 500 ng/kg/day every three days for a week, versus vehicle) is “reduced tumor size”. For the setting “by 5 years”, this molecule returned a patients with relapse of 40% and a survival rate of 60%. Also, under “versus vehicle injections”, the “T cell activation and immune cell infiltration in biopsies of injected lesions” value was “more T cell activation and immune cell infiltration”.
